{
  "source": "paper PMC8145704",
  "about": "“Conformational Plasticity of Hepatitis B Core Protein Spikes Promotes Peptide Binding Independent of the Secretion Phenotype” (Microorganisms, 2021)",
  "test_in_all_cases": "negative-staining electron microscopy",
  "key": {"[1]": {"target": "P5T-HBc capsids (Hepatitis B virus (genotype D; strain ayw)) (UniProt P03146)"}, "[2]": {"target": "F97L-HBc capsids (Hepatitis B virus (genotype D; strain ayw)) (UniProt P03146)"}, "[3]": {"target": "L60V-HBc capsids (Hepatitis B virus (genotype D; strain ayw)) (UniProt P03146)"}},
  "data": [
    {"substance": "P5T-HBc capsids (from UniProt P03146 1-183) (natural protein)", "values": [
      {"measurement": "stoichiometry N (subunits per capsid)", "setting": "[1]", "result": 240}
    ]},
    {"substance": "F97L-HBc capsids (from UniProt P03146 1-183) (natural protein)", "values": [
      {"measurement": "stoichiometry N (subunits per capsid)", "setting": "[2]", "result": 240}
    ]},
    {"substance": "L60V-HBc capsids (from UniProt P03146 1-183) (natural protein)", "values": [
      {"measurement": "stoichiometry N (subunits per capsid)", "setting": "[3]", "result": 240}
    ]}
  ]
}
